Reference: the supplement of paper PMC10724198

Experiments:
[1] = test system: Saccharomyces cerevisiae; test: protein stability index of tFT-peptide fusion in deletion strain of DAS1 (PSI (0-1 scale)); higher = more stable (slower turnover)
Method: (§1)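 MPS profiling in S. cerevisiae of two library types built from selected 12-aa C-degron peptides (IN1, IN2, LN1, LN3, VN2, R1-R5, W1-W3, Atg1 and Rpa12 C-termini): saturation mutagenesis libraries and C-terminal +1 capping libraries (13 aa). Each peptide is fused to the C-terminus of a sfGFP-mCherry timer, after a GGGS linker. Cells are FACS-sorted into 8 mCherry/sfGFP bins and sequenced. PSI runs from 0 (unstable) to 1 (stable), measured once in wild type and in the das1Δ or doa10Δ background.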

[2] = test system: Saccharomyces cerevisiae; test: protein stability index of tFT-peptide fusion in wild type (PSI (0-1 scale)); higher = more stable (slower turnover); conditions: genetic background: wild type
Method: as §1
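Wherever protein stability index of tFT-peptide fusion in deletion strain of DAS1 is given: PSI is a weighted mean of each variant's read distribution over the sorted stability bins, computed only for variants having over 10 reads in total.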
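Wherever protein stability index of tFT-peptide fusion in wild type is given: PSI derived as read-weighted mean over the 8 sorting bins, only variants exceeding 10 total reads kept, mCherry placed adjacent to the peptide and sfGFP distal.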

Q: Which protein stability index [1] does the source give for FSMRWTFRYWVNT here?
A: Its protein stability index is 0.539.

Q: And the protein stability index [2]?
A: The protein stability index was 0.318.

Q: How did the protein stability index [1] turn out when FSMRWTPRYWVN was run?
A: The protein stability index was 0.59.

Q: What about the protein stability index [2] of the same sequence?
A: Its protein stability index is 0.0631.

Q: With FSMRWTVRYWVN as the sequence, how does the protein stability index [1] read?
A: The protein stability index was 0.454.

Q: And the protein stability index [2]?
A: Its protein stability index is 0.0513.

Q: Which protein stability index [1] does the source give for FSMYWTFRYWVN here?
A: Its protein stability index is 0.399.

Q: And the protein stability index [2]?
A: The protein stability index was 0.0583.

Q: What does the source list for FSVRWTFRYWVN?
A: protein stability index [1]: 0.419; protein stability index [2]: 0.0298

Q: Which protein stability index [1] does the source give for GRGAVGGWRLVG here?
A: The protein stability index was 0.671.

Q: What about the protein stability index [2] of the same sequence?
A: The protein stability index was 0.19.

Q: Which results are given for IKHKKGQKQKIN?
A: protein stability index [1]: 0.608; protein stability index [2]: 0.109

Q: How did the protein stability index [1] turn out when ITSCGYKFRTNN was run?
A: The protein stability index was 0.674.

Q: What about the protein stability index [2] of the same sequence?
A: Its protein stability index is 0.208.

Q: KDHKKGQKQKIN was tested. Which protein stability index [1] did it give?
A: The protein stability index was 0.604.

Q: And the protein stability index [2]?
A: Its protein stability index is 0.0956.

Q: What does the source list for KKCKKGQKQKIN?
A: protein stability index [1]: 0.593; protein stability index [2]: 0.102

Q: How did the protein stability index [1] turn out when KKHKKEQKQKIN was run?
A: Its protein stability index is 0.678.

Q: And the protein stability index [2]?
A: Its protein stability index is 0.0895.

Q: With KKHKKGQKFKIN as the sequence, how does the protein stability index [1] read?
A: The protein stability index was 0.572.

Q: What about the protein stability index [2] of the same sequence?
A: The protein stability index was 0.158.

Q: For KKHKKGQKNKIN, which protein stability index [1] is on record?
A: Its protein stability index is 0.596.

Q: And the protein stability index [2]?
A: Its protein stability index is 0.096.

Q: For KKHKKGQKQAIN, which protein stability index [1] is on record?
A: The protein stability index was 0.6.

Q: And the protein stability index [2]?
A: Its protein stability index is 0.57.

Q: With KKHKKGQKQKEN as the sequence, how does the protein stability index [1] read?
A: The protein stability index was 0.82.

Q: What about the protein stability index [2] of the same sequence?
A: Its protein stability index is 0.57.

Q: How did the protein stability index [1] turn out when KKHKKGQKQKING was run?
A: The protein stability index was 0.653.

Q: What about the protein stability index [2] of the same sequence?
A: Its protein stability index is 0.293.

Q: Which results are given for KKHKKGQKQKIT?
A: protein stability index [1]: 0.598; protein stability index [2]: 0.263

Q: Which protein stability index [1] does the source give for KKHKKGQKQKIY here?
A: Its protein stability index is 0.594.

Q: What about the protein stability index [2] of the same sequence?
A: The protein stability index was 0.255.

Q: How did the protein stability index [1] turn out when KKHKKGQKQKRN was run?
A: The protein stability index was 0.575.

Q: And the protein stability index [2]?
A: The protein stability index was 0.5.

Q: With KKHKKGQKQPIN as the sequence, how does the protein stability index [1] read?
A: The protein stability index was 0.587.

Q: And the protein stability index [2]?
A: Its protein stability index is 0.637.

Q: Which protein stability index [1] does the source give for KKHKKGQKSKIN here?
A: Its protein stability index is 0.562.

Q: What about the protein stability index [2] of the same sequence?
A: Its protein stability index is 0.548.

Q: With KKHKKGQMQKIN as the sequence, how does the protein stability index [1] read?
A: The protein stability index was 0.626.

Q: And the protein stability index [2]?
A: Its protein stability index is 0.209.

Q: For KKHKKGQRQKIN, which protein stability index [1] is on record?
A: Its protein stability index is 0.599.

Q: What about the protein stability index [2] of the same sequence?
A: The protein stability index was 0.0819.

Q: With KKHKKGQWQKIN as the sequence, how does the protein stability index [1] read?
A: Its protein stability index is 0.556.

Q: And the protein stability index [2]?
A: The protein stability index was 0.106.

Q: Which results are given for KKHKKYQKQKIN?
A: protein stability index [1]: 0.587; protein stability index [2]: 0.0518

Q: KKHKPGQKQKIN was tested. Which protein stability index [1] did it give?
A: Its protein stability index is 0.607.

Q: What about the protein stability index [2] of the same sequence?
A: The protein stability index was 0.143.

Q: Which results are given for KKHKWGQKQKIN?
A: protein stability index [1]: 0.589; protein stability index [2]: 0.05

Q: KKHKYGQKQKIN was tested. Which protein stability index [1] did it give?
A: The protein stability index was 0.613.

Q: What about the protein stability index [2] of the same sequence?
A: Its protein stability index is 0.067.

Q: Which results are given for KKHLKGQKQKIN?
A: protein stability index [1]: 0.608; protein stability index [2]: 0.0828

Q: With KKHQKGQKQKIN as the sequence, how does the protein stability index [1] read?
A: The protein stability index was 0.597.

Q: What about the protein stability index [2] of the same sequence?
A: Its protein stability index is 0.0868.

Q: Which protein stability index [1] does the source give for KNHKKGQKQKIN here?
A: The protein stability index was 0.61.

Q: What about the protein stability index [2] of the same sequence?
A: Its protein stability index is 0.121.

Q: KSMRWTFRYWVN was tested. Which protein stability index [1] did it give?
A: Its protein stability index is 0.578.

Q: What about the protein stability index [2] of the same sequence?
A: The protein stability index was 0.0597.

Q: How did the protein stability index [1] turn out when LAVYLSCVACIN was run?
A: Its protein stability index is 0.0886.

Q: And the protein stability index [2]?
A: Its protein stability index is 0.0214.

Q: With LCVYLSCVACIN as the sequence, how does the protein stability index [1] read?
A: Its protein stability index is 0.0253.

Q: What about the protein stability index [2] of the same sequence?
A: Its protein stability index is 0.0138.

Q: LFILRQKMNHQN was tested. Which protein stability index [1] did it give?
A: The protein stability index was 0.692.

Q: And the protein stability index [2]?
A: The protein stability index was 0.126.

Q: LKHLRQKMNHQN was tested. Which protein stability index [1] did it give?
A: Its protein stability index is 0.712.

Q: And the protein stability index [2]?
A: Its protein stability index is 0.175.

Q: How did the protein stability index [1] turn out when LKILAQKMNHQN was run?
A: Its protein stability index is 0.667.

Q: What about the protein stability index [2] of the same sequence?
A: Its protein stability index is 0.229.

Q: For LKILCQKMNHQN, which protein stability index [1] is on record?
A: Its protein stability index is 0.71.

Q: And the protein stability index [2]?
A: The protein stability index was 0.246.

Q: LKILRCKMNHQN was tested. Which protein stability index [1] did it give?
A: The protein stability index was 0.625.

Q: What about the protein stability index [2] of the same sequence?
A: Its protein stability index is 0.17.

Q: How did the protein stability index [1] turn out when LKILRQKMNHQK was run?
A: The protein stability index was 0.682.

Q: And the protein stability index [2]?
A: Its protein stability index is 0.666.

Q: LKILRQKMNHQNA was tested. Which protein stability index [1] did it give?
A: Its protein stability index is 0.681.

Q: What about the protein stability index [2] of the same sequence?
A: Its protein stability index is 0.658.

Q: Which results are given for LKILRQKMNHQND?
A: protein stability index [1]: 0.724; protein stability index [2]: 0.675

Q: Which results are given for LKILRQKMNHQNP?
A: protein stability index [1]: 0.688; protein stability index [2]: 0.678

Q: Which protein stability index [1] does the source give for LKILRQKMNHQNT here?
A: Its protein stability index is 0.692.

Q: And the protein stability index [2]?
A: The protein stability index was 0.671.

Q: Which protein stability index [1] does the source give for LKILRQKMNHQR here?
A: The protein stability index was 0.669.

Q: And the protein stability index [2]?
A: Its protein stability index is 0.67.
